According to the Immune Epitope Database (IEDB):

Assays:
Test in all cases: IEDB peptide-MHC binding, purified MHC/competitive/radioactivity; filed as Kd, often an IC50 or EC50 that approximates it; ≥ and ≤ were set here for values at or beyond the usual limits of such assays
HLA-A*02:06 = target: HLA-A*02:06
HLA-A*02:02 = target: HLA-A*02:02
HLA-A*02:03 = target: HLA-A*02:03
HLA-A*11:01 = conditions: source organism: Vaccinia virus WR
HLA-A*31:01 = conditions: source organism: Vaccinia virus WR
HLA-A*68:01 = conditions: source organism: Vaccinia virus WR
HLA-A*33:01 = conditions: source organism: Vaccinia virus WR
HLA-A*03:01 = conditions: source organism: Vaccinia virus WR
[1] = source organism: Vaccinia virus WR
[2] = source organism: Dengue virus 1 Brazil/97-11/1997
[3] = source organism: Dengue virus 4 Philippines/H241/1956
[4] = source organism: SARS coronavirus Tor2
[5] = source organism: Mammarenavirus brazilense
[6] = source organism: HIV-1 M:B_ARV2/SF2
[7] = source organism: Dengue virus 3 Martinique/1243/1999

Sequence | Kd (HLA-A*02:06; [1]) | Kd (HLA-A*02:02; [1]) | Kd (HLA-A*02:03; [1]) | further results
AISYCRAFI | 146 nM | 17.2 nM | 149 nM | 
ALYYVHSLL | 3260 nM | 26.1 nM | 15000 nM | 
AMIHKTYIDV | 206 nM | 335 nM | 26.7 nM | 
CTMERTNDLT | 1010 nM | 4050 nM | 16100 nM | 
DTCLLAISA | ≥ 25200 nM | 4330 nM | 6450 nM | 
DTGKKELAL | 14200 nM | 116 nM | 156 nM | 
DTIESAKTKI | ≥ 69800 nM | ≥ 47900 nM | ≥ 50500 nM | 
DVGCLLTDT | ≥ 77100 nM | ≥ 77800 nM | ≥ 65400 nM | 
FLSGKGLGKT |  |  |  | Kd (HLA-A*02:03; [2]): 32 nM
GLFDINVIGL | 240 nM | 0.163 nM | 1.43 nM | 
GVSGNIVSSV |  |  |  | Kd (HLA-A*02:03; [3]): 30.6 nM
HLDGEVLSL |  |  |  | Kd (HLA-A*02:06; [4]): 160 nM; Kd (HLA-A*02:02; [4]): 65.9 nM; Kd (HLA-A*02:03; [4]): 131 nM
IASSMKGENV | 311 nM | 751 nM | 3240 nM | 
IAVANCVRNL | 9120 nM | 57.1 nM | 467 nM | 
ILGIIITVGM | 4710 nM | 288 nM | 265 nM | 
ILSNKLLYAA | 150 nM | 8.09 nM | 1110 nM | 
ITAIYVFCI |  |  |  | Kd (HLA-A*02:06; [4]): 132 nM; Kd (HLA-A*02:02; [4]): 28.7 nM; Kd (HLA-A*02:03; [4]): 89.2 nM
ITPTIEDDKI | 1500 nM | 18700 nM | 4200 nM | 
ITVGMLIYSM | 97.1 nM | 47.4 nM | 6110 nM | 
IVQSVLRDI | 1310 nM | ≥ 77800 nM | 101 nM | 
KAKQLCYCPA | 339 nM | 308 nM | 188 nM | 
KCFGNTALA |  |  |  | Kd (HLA-A*02:06; [5]): ≥ 77000 nM; Kd (HLA-A*02:02; [5]): 31 nM; Kd (HLA-A*02:03; [5]): 1090 nM
KIILFQNNDI | 2170 nM | 1610 nM | 2000 nM | 
KLDDTGKKEL | 5530 nM | 101 nM | 139 nM | 
KLYGYASLTT | 34 nM | 1.88 nM | 0.261 nM | 
KTNTKHCPKI | 234 nM | ≥ 33800 nM | 10900 nM | 
LLDDFVEII |  |  |  | Kd (HLA-A*02:06; [4]): 159 nM; Kd (HLA-A*02:02; [4]): 136 nM; Kd (HLA-A*02:03; [4]): 523 nM

Sequence | Kd (HLA-A*02:06; [1]) | Kd (HLA-A*02:02; [1]) | Kd (HLA-A*02:03; [1]) | further results
LLFLNDMGKV |  |  |  | Kd (HLA-A*02:03; [3]): 6.83 nM
LLFMILTVA |  |  |  | Kd (HLA-A*02:03; [2]): 29.3 nM
LLTHGADPNA | 15800 nM | 9610 nM | 7510 nM | 
LLVQYGAKI | 1140 nM | 206 nM | 358 nM | 
LMYKGLPWNV |  |  |  | Kd (HLA-A*02:06; [4]): 37.1 nM; Kd (HLA-A*02:02; [4]): 1.75 nM; Kd (HLA-A*02:03; [4]): 5.34 nM
LVGPTPVNI |  |  |  | Kd (HLA-A*02:02; [6]): 38 nM; Kd (HLA-A*02:03; [6]): 17.6 nM
MAGVEVRYI | 2050 nM | 293 nM | 201 nM | 
MVAGGLLLAA |  |  |  | Kd (HLA-A*02:06; [3]): 19.2 nM
NASKFVYVSV | 823 nM | 4550 nM | 8.57 nM | 
NINFNNSSII | ≥ 30100 nM | 6640 nM | 13300 nM | 
NINIEVKLFI | 2320 nM | 12500 nM | 2050 nM | 
NLILNFLDWI | 443 nM | 1690 nM | 283 nM | 
NLYKVYNGI | 817 nM | 408 nM | 61.7 nM | 
NMDWRSLTQV | 1.69 nM | 100 nM | 17.4 nM | 
NQAAILMGL |  |  |  | Kd (HLA-A*02:06; [2]): 12.5 nM
NQATVLMGL |  |  |  | Kd (HLA-A*02:06; source organism: Dengue virus 2 Jamaica/1409/1983): 10.6 nM
NTKSDNIINI | ≥ 69800 nM | ≥ 30800 nM | 1080 nM | 
PAHLINKLL | ≥ 42300 nM | 6690 nM | 6310 nM | 
QLCDHRLMSA |  |  |  | Kd (HLA-A*02:03; [7]): 54.2 nM
QMYRKFSRCT | 14700 nM | ≥ 25700 nM | 2270 nM | 
RIVVALSSLV | 9.62 nM | 47.6 nM | 7.21 nM | 
RMGMGVTYL |  |  |  | Kd (HLA-A*02:03; [7]): 115 nM
RVAVNKSNK |  |  |  | Kd (HLA-A*11:01): 11.5 nM; Kd (HLA-A*31:01): 57.7 nM; Kd (HLA-A*68:01): 147 nM; Kd (HLA-A*33:01): ≥ 52000 nM; Kd (HLA-A*03:01): 6.83 nM
RVMANNVKK |  |  |  | Kd (HLA-A*11:01): 16.7 nM; Kd (HLA-A*31:01): 139 nM; Kd (HLA-A*68:01): 104 nM; Kd (HLA-A*33:01): ≥ 77700 nM; Kd (HLA-A*03:01): 17.2 nM
SFSNTIQSYK |  |  |  | Kd (HLA-A*11:01): 130 nM; Kd (HLA-A*31:01): 220 nM; Kd (HLA-A*68:01): 177 nM; Kd (HLA-A*33:01): 12200 nM; Kd (HLA-A*03:01): 117 nM
SIENKHQRRL | ≥ 53900 nM | 17000 nM | ≥ 21100 nM | 
SIRPRVTKQY |  |  |  | Kd (HLA-A*11:01): 9160 nM; Kd (HLA-A*31:01): 6270 nM; Kd (HLA-A*68:01): 8010 nM; Kd (HLA-A*33:01): ≥ 70000 nM; Kd (HLA-A*03:01): 884 nM
